The values that follow come from patent publication US9168297B2, “Regulation of skin pigmentation by neuregulin-1 (NRG-1)” (The United States of America, as Represented by the …, priority 2010, dated 2015).

Assay [1] concerns MelanoDerm 3-D reconstructed human skin. Nature of the assay: Pigmentation of 3-D reconstructed skin (MelanoDerm), L value and microscopy. The class given is cell-based. The note with it: for ΔL (pigmentation, L value): day 9, vs vehicle. The protocol: Light, Medium, and Dark human epidermal equivalents (MelanoDerm®) were purchased from MatTek Corp. (Ashland, Mass.). MelanoDerms were grown at the air/liquid interface of the maintenance medium MEL-LLMM (MatTek Corp.), and the culture medium was renewed every 2 days. Where noted, MelanoDerms were treated for 9 days with 50 ng/ml NRG-1 (rhNRG-1-β1, R&D Systems, Minneapolis, Minn.) prepared in phosphate-buffered saline (PBS) with 0.1% bovine serum albumin (BSA) and MelanoDerm maintenance medium. The same concentrations of PBS and BSA were used for mock-treated controls.
For the studies where the MelanoDerms were treated with NRG-1 and/or various pan-ERBB inhibitors, Dark MelanoDerms were first incubated with a pan-ERBB inhibitor (0.5 μM Compound 39, EMD Chemicals, Gibbistown, N.J. or 2 μM CI-1033, Selleck Chemicals LLC, US) for 30 minutes or with vehicle (DMSO) only before treatment with 50 ng/ml NRG-1; identical amounts of DMSO (0.02%) were added to all samples. Treatment was renewed every 2 days in fresh medium and was continued for 9 days.
Three dimensional (3-D) reconstructed human skin models (termed MelanoDerms) were used to test the effects of NRG-1 on skin pigmentation. Three types of MelanoDerm, ‘light’ ([…]), ‘medium’ ([…]) and ‘dark’ ([…]), were used to compare the effects of NRG-1 on those three types of skin. In preliminary studies to optimize the concentration of NRG-1 (from 10 to 200 ng/ml were tested, FIG. 10), 50 ng/ml was chosen which was consistent with concentrations of NRG-1 used for other cell types by other groups. NRG-1 was added to the MelanoDerm media at 50 ng/ml and the medium was replenished every 2 days. On day 9, the MelanoDerms treated with NRG-1 were compared to controls treated only with vehicle. Pigmentation of the skin was assessed using the L value, higher L values indicating lighter colors. […] It should be noted that relatively small changes in ΔL can represent relatively large changes in visible skin color. For example, the mean L value of White/Caucasian skin is 67, that of Asians, Pacific-Islanders is 65, that of Hispanic/Latinos is 64, and that of American Indian/Alaska Native is 62. […] In the vehicle-treated control MelanoDerms, melanin pigment was more evenly distributed throughout the entire epidermis and no visible melanin accumulation was observed around melanocytes (FIG. 3B). […] Therefore, NRG-1 leads to visible increases in pigmentation in the MelanoDerms which was greater as the skin had more constitutive pigmentation.

A further assay relates to ERBB2. Nature of the assay: ERBB2 protein level by western blotting in melanocytes. The format is cell-based, human. The protocol:
(§1) FIGS. 7A and 7B are digital images illustrating expression of ERBBs after NRG-1 treatment. FIG. 7A) HEM-LP and HEM-DP melanocytes were treated with or without NRG-1 (50 ng/ml) for 5 days, and levels of ERBB2, ERBB3 or ERBB4 were detected by western blotting. Results shown are representative of three studies. FIG. 7B) Expression of ERBB2 was examined in HEM-LP and in HEM-DP melanocytes after 1 or 9 days or treatment with NRG-1 compared to vehicle-treated controls; the results are representative of two independent studies.
FIGS. 8A and 8B are digital images illustrating the mechanism of ERBB2 abrogation after NRG-1 treatment. FIG. 8A) ERBB2 mRNA levels in HEM-LP and in HEM-DP melanocytes were detected by RT-PCR after treatment with or without NRG-1 (50 ng/ml) for 1 day. FIG. 8B) MG132 (120 nM) was added to the melanocyte culture medium to inhibit proteasomal degradation during treatment of HEM-LP and HEM-DP melanocytes with or without NRG-1 (50 ng/ml). Proteins were extracted for each sample, and ERBB2 levels were detected by western blotting. Results are representative of three studies.
Fibroblast cultures in 100-mm dishes were solubilized in appropriate volumes of M-PER mammalian protein extraction reagent (Pierce Biotechnology, Rockford, Ill.) containing a Protease Inhibitor mixture (Roche, Mannheim, Germany) and phosphatase inhibitors. The protein concentration of each extract was measured using a BCA protein assay kit (Pierce, Rockford, Ill.). Cell extracts (20 μg) were separated on 8-16% gradient SDS polyacrylamide gels (Invitrogen, Carlsbad, Calif.), after which proteins were transferred to PVDF membranes (Invitrogen, Carlsbad, Calif.). Membranes were blocked for 1 hour in PBS or Tris buffered saline (TBS) containing 0.1% Tween 20 and 5% (w/v) nonfat dry milk powder and were incubated overnight at 4° C. with the primary antibody in PBS containing 0.1% Tween 20 and 2.5% (w/v) nonfat dry milk powder or in 0.1% Tween-TBS with 5% BSA, depending on the antibody. The following primary antibodies were used: anti-human DKK-1 (0.2 μg/ml), anti-human DKK-3 (0.1 μg/ml), anti-human bFGF (0.1 μg/ml), anti-human SCF (0.1 μg/ml), anti-human mouse monoclonal ERBB3 (1 μg/ml) and anti-human mouse monoclonal ERBB4 (2 μg/ml) antibodies from R&D Systems, neuregulin-1α/β1/2 (C-20) (1:500) and GAPDH (FL-335) (1:10,000) antibodies from Santa Cruz Biotechnology, ERBB2 rabbit monoclonal (1:1000) and phospho-Akt (Ser473) (1:1000) antibodies from Cell Signaling Technology. Membranes were then incubated with an HRP-linked anti-rabbit antibody (GE Healthcare) at 1:10,000 dilution or with an anti-goat antibody (DAKO) at 1:2,000 dilution at room temperature for 1 hour. Antigen-antibody complexes were detected using an ECL-plus Western blotting detection system (GE Healthcare). […]
In general terms: Immunoblotting shows a protein as a band on a membrane.

A further assay relates to ERBB3. Nature of the assay: ERBB3 protein level by western blotting in melanocytes. The format is cell-based, human. The note with it: NRG-1 50 ng/ml, 5 days. The protocol:
as §1
Fibroblast cultures in 100-mm dishes were solubilized in appropriate volumes of M-PER mammalian protein extraction reagent (Pierce Biotechnology, Rockford, Ill.) containing a Protease Inhibitor mixture (Roche, Mannheim, Germany) and phosphatase inhibitors. The protein concentration of each extract was measured using a BCA protein assay kit (Pierce, Rockford, Ill.). Cell extracts (20 μg) were separated on 8-16% gradient SDS polyacrylamide gels (Invitrogen, Carlsbad, Calif.), after which proteins were transferred to PVDF membranes (Invitrogen, Carlsbad, Calif.). […] Antigen-antibody complexes were detected using an ECL-plus Western blotting detection system (GE Healthcare). […]

B1: NRG-1: commercially available recombinant human neuregulin-1 (rhNRG-1-β1, R&D Systems), SEQ ID NO: 11 (protein)
chain: TSHLVKCAEKEKTFCVNGGECFMVKDLSNPSRYLCKCPNEFTGDRCQNYVMASFYKHLGIEFMEAEELYQK
As to B1, the “Melanocyte growth in MelanoDerm skin model” value in assay [1] (MelanoDerm, NRG-1) is “did not increase melanocyte growth”. The “Melanocyte morphology, bright field microscopy” value in assay [1] (MelanoDerms, NRG-1 50 ng/ml, vs vehicle-treated control) is given as “more abundant cytoplasm with thicker dendrites”. The “ΔL (pigmentation, L value)” value in assay [1] (dark MelanoDerms, NRG-1 50 ng/ml) is −3; in assay [1] (light MelanoDerms, NRG-1 50 ng/ml), −1; in assay [1] (medium MelanoDerms (Asian skin), NRG-1 50 ng/ml), −2. In addition, the “Expression of ERBB2” value with ERBB2 (HEM-LP and HEM-DP, NRG-1 50 ng/ml, 5 days) was “almost completely undetectable”. Moreover, the “Level of ERBB2” value in the assay on ERBB2 (both types of melanocytes, NRG-1, 1 day) is listed as “significantly decrease”. For the same molecule, the ERBB2 expression result in the assay with ERBB2 (both types of melanocytes, NRG-1, day 3, lasted until day 9) is “completely disappeared”. The ERBB3 expression level result with ERBB3 (HEM-DP) was “not affected”; with ERBB3 (HEM-LP), “no detectable change”.
